Results from doi:10.1101/2023.10.13.562155 (bioRxiv, 2023).

Target: T1, human p75^NTR JXT domain (K273-D332) (human, UniProt P08138 273-332)
T1 sequence (looked up): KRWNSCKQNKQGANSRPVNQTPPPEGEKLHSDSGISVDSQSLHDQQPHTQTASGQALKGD
Assay: NMR titration

B1: RhoGDI NTD^S34D (A2-A60) (domain or fragment, human, UniProt P52565 2-60, looked up)
chain: AEQEPTAEQLAQIAAENEEDEHSVNYKPPAQKDIQEIQELDKDDESLRKYKEALLGRVA
binding result: binds
